The source of these data is the DeepSol protein solubility set.

This data set is described as follows: soluble on expression in E. coli; label from the status in PepcDB or PDB records.
Take “MGSDKIHHHHHHMTQQNGKVYLVGAGPGDVAYLTVKAYNLLATAQVLVYDALVDEQLLQCVSPDCLKLDVGKRGGKPSTPQADINHLLVKYCQEGALVVRLKSGDPFIFGRCTSEIEALKAAGCKFEVVPGISSSIAAPLLAGIPLTDPVMSRCFAVLTAHEPEVLDWEALSRLDTLVILMGGKNLADIINELLRRGQSHLTPIAIIRWAGTPSQQIWTGQLGDILEQTRGLSLSPAVIVIGEVVGLRKYLQPEKIFPENSTTPMSSNQPLTGKTILVTRSSGQSSQFSDRLTTLGATVIEMPALEIGSPSSWEELDQAIANLSQFEWLILTSTNGVDYFFERLNLQGKDTRALAGVKIAVVGEKTSQSLKQRGIQADFIPPNFVADSLVEHFPESLLNKKILFPRVESGGREILVKELSAKGAEVIEVAAYQSCCPSSIPPAAELALKNHTIDIITFASSKTVQFFHQLVDNIFPHNIPNTLAGICIASIGPQTSKTCHTLLGRVDVEAEEYTLDGLTQSIINWALKV”: the “soluble on expression in E. coli” value is listed as “not soluble”. Take “MAKKLLLVGGGHSNALVLKHWCRHPLADVELTLVSDVRQTPYSGMLPGYLAGFYSYGESHIDLAPLCASAGAIFVQDKAIAVNPEQNLLTTAEGRQLSFDCLSLDIGSTPFIDDIVGAEYGIPAKPVPQFLTAWLALLENIDQNRPKKVTLAIAGGGAGGVELAFNLQARLAKLFPAMGLDMQIWQRGAILLPHHSVQGRKLIERLLVKQNIAVLLNHPVTSIEPEFSPDDNPLTCYKLWSNDHWQSVNAVFLVTQASPAPWLAQSGLSLDSRGFVSVKPTLQSYSHGHIFAAGDVANMIDHPRPKAGVFAVRQGKPLFENLQHYLSHQTLKTFVPQSKYLSLLGTRDGRAIALWGPWASYGHCWWRLKDYIDRQFMAGFSA”: the “soluble on expression in E. coli” value is “soluble”. The entry for “MSLLAEKLQINSITPHPSVEYWSVCKVEALFETPFLELVYRATQVHRKHFNPRAIQLSTLMSIKTGGCPEDCSYCPQSARYHTGVQNQQLLDVDEIVAKAKIAKARGAGRFCMGAAWRGPKPKDIEKVTEIIKAVKSLGLETCGTFGLLQDGMAEDLKEAGLDYYNHNLDTAPEHYAEVIGTRRFDDRLSTLGKVRKAGLKVCCGGIVGMNETRKERAGLIASLANLDPQPESVPINQLVKVEGTPLADAEELDWTEFVRTIAVARITMPKSYVRLSAGRSGMTEEMQAMCFMAGANSIFYGDKLLVTDNPEEDGDQLLMAKLDLEPETAENKKLEGHHHHHH” is “soluble”. The entry for “MNLNNIRSSMTESTKSKDESMRSHLVKPGSVYDGIEPGELGETTESVQDRVRQLESRNSFLEEQCSQIESEKRYLENQKIKYEREIRKLQSELDRMKTSPLIIGTVIDVIKNDRIIVRSSNGPQFLVNVSQYIDEKKLLPGAKVALNQHTLAIAEVIPSTEEPFVAAMEVIESVEVDYDQIGGLDEQIQELQEAVELPLTSPERFARIGIEPPKGVLLYGLPGTGKTLLAKAVAHRTNATFIRVVGSELVQKYIGDGSKLVREIFEMARKKAPSIIFIDELDSIAARRLNETTGADREVQRTLMQLLAEMDGFDKRKNIRIIAATNRPDVLDPAILRPGRFDRLVHVPMPGIEARGKILKIHCEKMTLAEDIDFKKLAKATEGMSGADLKAIATEAGMFAVRRDKELVEMEEFLEAVEKVSMAADTQKMMPSNLPETMFV” is “not soluble”; for “MVIMLATMLHSIAVGNLLPSYVKTICVDMNPSTVTKLMDRGTHQAIGVVTDVGLFLPLLYLKIKEIEAKE” it is “not soluble”. In the case of “MGSDKIHHHHHHENLYFQGMRDHVEIGIGREARRTYSLDDISVVSSRRTRSSKDVDTTWHIDAYKFDLPFMNHPSDALASPEFVIEMGKQGGLGVINAEGLWGRHADLDEAIAKVIAAYEEGDQAAATRTLQELHAAPLDTELLSERIAQVRDSGEIVAVRVSPQNVREIAPIVIKAGADLLVIQGTLISAEHVNTGGEALNLKEFIGSLDVPVIAGGVNDYTTALHMMRTGAVGIIVGGGENTNSLALGMEVSMATAIADVAAARRDYLDETGGRYVHIIADGSIENSGDVVKAIACGADAVVLGSPLARAEEAAGKGYFWPAVAAHPRFPRGVVTESVDLDEAAPSLEQILHGPSTMPWGVENFEGGLKRALAKCGYTDLKSFQKVSLHVN” it was “soluble”. “NARTVVMVQFRDIEQETSMRRDLTRTEADLTRTEARLAAFLRNMAEGILVLDDDSRITYASEAASELLKVPVASLVGERFTEFCRAGQSRESVRRALELTTADGGSQSLRYEVELTPGERRWHAGSCQHIGIE”: the “soluble on expression in E. coli” value is “not soluble”. Take “MSDLVTKFESLIISKYPVSFTKEQSAQAAQWESVLKSGQIQPHLDQLNLVLRDNTFIVSTLYPTSTDVHVFEVALPLIKDLVASSKDVKSTYTTYRHILRWIDYMQNLLEVSSTDKLEINHDLDLPHEVIEKKKKAPAGGAADAAAKADEDVSKKAKKQDHPRGKPDEETLKKLREEAKAKKAAKKAANAKQQQEQQNKAPEKPKPSAIDFRVGFIQKAIKHPDADSLYVSTIDVGDEEGPRTVCSGLVKHFPLDAMQERYVVVVCNLKPVNMRGIKSTAMVLCGSNDDKVEFVEPPKDSKAGDKVFFEGFGDEAPMKQLNPKKKIWEHLQPHFTTNDGLEVIFKDEEEKDHPVRKLTNAKGESFKVASIANAQVR”: the “soluble on expression in E. coli” value is “not soluble”. “MPKDELPNHNCIKHLRSVVQQQQSRIAELEKTRAEHKHQLAEQKRDIQLLKAYMRAIRSVNPNLQNLEETIEYNEILEWVNSLQPARVTRWGGMISTPDAVLQAVIKRSLVESGCPASIVNELIENAHERSWPQGLATLETRQMNRRYYENYVAKRIPGKQAVVVMACENQHMGDDMVQEPGLVMIFAHGVEEI”: the “soluble on expression in E. coli” value is reported as “not soluble”.

For the sequence “MSSNQYIQSLELTNFTVLPNDTFEFSENLNVIVAENGCGKTHLLKILYSLLEVTSNTKNRLLKTELQKSFADKLLNVFRPDSLGRLSKRLQGRGRTEIVLKLQNGTTHSSLNFSSNSSSQVNVQSIGLKENEYTPTPIFLPSRELITLCPWFTSLYQNQSIPFEETWFDTCMQLNHPLAKGPRETKIRELLEPIENAMGGKVSEEQGRFYLSLTNTGGKIEAPLVAEGLRKFVMIARLIATGALLDKGYLFWDEPEANLNPKLIKVAARIIWSLSQQGIQVFIATHSLFLLRELELLKLENNTDLPVRFFSLIASDDGTKVEQGNSINDLNTLILLDENIMQADRYLNI”, the “soluble on expression in E. coli” value is listed as “not soluble”. Consider “MGSDKIHHHHHHMSAISYLHLLMLRQNNSMTRHNQTLFNLPLFNQHQFNPPQLNQVAIDQLQQGQAKRLSLLWLWLQQDETRLAALMVCQKVMQQQGITDWLISAGFIRNLIWDNLHSMTSQPLNDIDVIYWRDNNPSSAEDQAIEALLVKQIALPWSVKNQARMHLRNGDMPYISCADAMSFWPEKQTAIGVKLASIDDLTSAEFQLQVTSVFGLSCLFDLSLSPNPKRDKAIFNHRVSQKGWLIHYSKLLVTE”, for which the “soluble on expression in E. coli” value is reported as “not soluble”. On to “MGKRVLIVDDAAFMRMMLKDIITKAGYEVAGEATNGREAVEKYKELKPDIVTMDITMPEMNGIDAIKEIMKIDPNAKIIVCSAMGQQAMVIEAIKAGAKDFIVKPFQPSRVVEALNKVSK”, for which the “soluble on expression in E. coli” value is “soluble”. Turning to “MRLAFFGDVHGNFEALKAVLEDMENKGVDEVFCLGDLVGYGPDPEAVVQTIMEKNIKTIMGNYDDAVGYSKESCGCSYAPGRETEVGDISLKWSIENTSEKTREFLRNLPKKLSFEVEGVRFLLVHGSPLNELLEYVKPNTPPDRLKKIVESVEENVVVNGHTHLPMVKWVMGKLVLNPGSAGRPKDGDPRASYMIVDVENGTVSFEIVRVRYDVKTTVEKIARNGLPVELATVLALGQTFDMGPGKVTFTLGR”, the “soluble on expression in E. coli” value is on record as “soluble”. The entry for “SLPIASTATQMGSNKTRIFARQPAKAPPPLAWLSRPRDPRATAIAAAGQQSSRRVSKRELESHGSATDAWTAIHGVVYDITAYFRFHPGGAEILFIEAAGKDSTAVFDEMHPWVNVAWLLKDYRIGLYAPESEDDGGDDDDDDRTMTSPE” is “soluble”; for “MDIAVQLVDSGGGTLQAGKSLRLSCAISGLAFDGGAMGSEHRLTAGAMGWFRQAPGKDREFVAAISPRTDETYYAESLEGRFSVSRDAAATMVFLQADNVRLDDTASYYCAADEDVTPRVMGVIPHADHWGQGTLVTVSSAAALEHHHHHH” it is “soluble”; for “MGSDKIHHHHHHMAKIGIVICNYNKQNDVIDCIQSVLESKYEDYHIYVVDNASTDESVRLIRECYGSCDRLTLIENSENLGGSGGFNTGLRVAMAEGHMYLMCVDNDALLDENCIGTLSDFLDSHEKAGIAAAKIYHTGQENYVQQYGSFIDYDNYSVDSTYLNHIEDGSMPDVVYSDAVPACALMIRRTVVEQIGVMPEENFLYWDDTEWCVRCREAGYEVASVGAAAASHAMGAKKEDINTFPTYYAWRNWIKFFLDHIDEERLSDMAETFLGSIFEINYTDLYRGEENRSKTVMAALDDALHKVMGKAKEDRIFNLELTYDGLERAIGDKSDIAIMAGEFPLYADALKEKIKVMWPDKRVYIVGLQDIDEAYGTAHFQPDATITICESIFRQDDLSLSTYVMDLDGNVLVDEDDVLMVINYNFSRRSFIFSMKPLFMRLSRQNYGF” it is “not soluble”. For “MGSDKIHHHHHHMLNQSNELNAWDRDHFFHPSTHMGTHARGESPTRIMAGGEGVTVWDNNGRKSIDAFAGLYCVNVGYGRQKIADAIATQAKNLAYYHAYVGHGTEASITLAKMIIDRAPKGMSRVYFGLSGSDANETNIKLIWYYNNVLGRPEKKKIISRWRGYHGSGVMTGSLTGLDLFHNAFDLPRAPVLHTEAPYYFRRTDRSMSEEQFSQHCADKLEEMILAEGPETIAAFIGEPILGTGGIVPPPAGYWEKIQAVLKKYDVLLVADEVVTGFGRLGTMFGSDHYGIKPDLITIAKGLTSAYAPLSGVIVADRVWQVLVQGSDKLGSLGHGWTYSAHPICVAAGVANLELIDEMDLVTNAGETGAYFRAELAKAVGGHKNVGEVRGDGMLAAVEFVADKDDRVFFDASQKIGPQVATALAASGVIGRAMPQGDILGFAPPLCLTREQADIVVSKTADAVKSVFANL”, the “soluble on expression in E. coli” value is “not soluble”. The entry for “MGSDKIHHHHHHVELHQLKDLLTEKLQATSLIHATISAPRLKSNDLRRIKVKPILLRDTYAIQLEFQHERIIKHENLSIEEFIVRMDQFFDEFRQFLFRFETEEVQFQLSKKMKVSIKTTVKEPIQAELSHNRKKSHLLEDGVPVPFLIRLGVMTEEGQVKRQKYDKFKQINRFLEFVEDSIAVLPKGRTLRILDFGCGKSYLTFALYHYLKIVKGFDLNVTGLDLKKEVIEECAAIAADLGYDDLSFRVGDVHDYDQDTEVDLMVTLHACDVATDVALARAVDWNASVILSVPCCQKELNRQLDCSPLDVMLQHGLIQEKFASLATDSIRAELLTLVGYETQLLEFIDLENTPKNILIRAYKNPKRPTEEKIDRYIAFRELLHAKPYLERELSGRLGQISSKLVQ” is “not soluble”.

For the sequence “MGSDKIHHHHHHEQDNSVSEKQVDVVYNDPRDPFEGFNRAMWDLNYNVLDRYIYRPVAHTYKDYVPSPVKSGLHNFVRNLEEPNALVNNTLQGKFGWAANAGGRFVVNSTIGLLGVVDVADMMGMHRKQDDFNEVLGYYGVPNGPYFMAPFFGPYVTRELASDWVDGLYFPLSELTMWQSVVKWGIKSLHVRTEAIDQERLLDNALDPYTFVKDAYLQHMDYKVYDGNVPSNQEDDELLDEYMQELE”, the “soluble on expression in E. coli” value is reported as “not soluble”. Regarding “GMSDQRYNLRGVSASKEDVHNAIKNIDKGIFPKAFCKIIPDILGGDPEYCNIMHADGAGTKSSLAYMYWKETGDLSVWKGIAQDALIMNIDDLLCVGAVDNILVSSTIGRNKLLVPGEVISAIINGTDELLAELREMGVGCYATGGETADVGDLVRTIIVDSTVTCRMKRSDVIDNKNIQGGDVIVGLASSGQATYEKEYNGGMGSNGLTSARHDVFSKYLAKKYPESYDAAVPKELVYSGGLKLTDKIEELGIDAGKMVLSPTRTYAPVIKVLLDKLRSQIHGMVHCSGGAQTKVMHFVENKRVTKDNLFPIPPLFRTIQEQSGTDWSEMYKVFNMGHRMEIYIAPEHAEEVIGISKSFGIDAQIVGFVEEADKNELIIESEKGRFTY”, the “soluble on expression in E. coli” value was “soluble”.
